Target: CENP-T^HFD/-W complex, Q5EE01
Assay: GST pull-down (Coomassie gel quantification)
Conditions: chain shown with the change, parent: est. 100, read off a plot

Sequence of CENP-T^HFD/-W complex, Q5EE01 (chain, as listed by the source, chain 1 of 2): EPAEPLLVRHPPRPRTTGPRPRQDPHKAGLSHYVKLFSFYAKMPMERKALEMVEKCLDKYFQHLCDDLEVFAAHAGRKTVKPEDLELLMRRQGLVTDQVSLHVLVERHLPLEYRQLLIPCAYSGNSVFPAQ
Sequence of CENP-T^HFD/-W complex, Q5EE01 (Q5EE01 whole entry, chain 2 of 2): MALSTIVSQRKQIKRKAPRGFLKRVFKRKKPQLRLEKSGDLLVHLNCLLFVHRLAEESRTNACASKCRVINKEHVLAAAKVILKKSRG

EPEGEGSDAAAAAAESEIEDETFNPSEDDYEEEEEDSDED [GST-Spt16 amino acids 926–965, Q9Y5B9 E935A; E936A; G937A; D938A; S939A]
percent of parent (Exp=1): 81 % Pull-down | percent of parent (Exp=2): 90 % Pull-down
